From EP1192182B1, “PITUITARY ADENYLATE CYCLASE ACTIVATING PEPTIDE (PACAP) RECEPTOR 3 (R3) AGONISTS AND THEIR PHARMACOLOGICAL METHODS OF USE” (priority 1999, dated 2001)
Non-standard residues stand in square brackets, D forms with d. No end group written: not given here. Nle = CCCC[C@H](N)C(=O)O

T1: human PACAP/VIP R2 (PACAP R3) receptor (human, UniProt P41587 24-438)
T1 sequence (looked up): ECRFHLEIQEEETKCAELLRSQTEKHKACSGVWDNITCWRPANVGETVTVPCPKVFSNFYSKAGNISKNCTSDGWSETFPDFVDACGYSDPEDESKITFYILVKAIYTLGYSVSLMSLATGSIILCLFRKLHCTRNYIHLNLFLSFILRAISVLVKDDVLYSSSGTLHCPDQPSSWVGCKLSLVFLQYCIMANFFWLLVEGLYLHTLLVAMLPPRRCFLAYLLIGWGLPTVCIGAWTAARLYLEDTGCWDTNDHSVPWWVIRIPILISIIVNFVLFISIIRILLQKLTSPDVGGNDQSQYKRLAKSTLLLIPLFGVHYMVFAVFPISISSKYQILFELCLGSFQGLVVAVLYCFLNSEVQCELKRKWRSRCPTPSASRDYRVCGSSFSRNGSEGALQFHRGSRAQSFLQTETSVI

T2: PACAP-R3 (human, UniProt P41587 24-438)
T2 sequence (looked up): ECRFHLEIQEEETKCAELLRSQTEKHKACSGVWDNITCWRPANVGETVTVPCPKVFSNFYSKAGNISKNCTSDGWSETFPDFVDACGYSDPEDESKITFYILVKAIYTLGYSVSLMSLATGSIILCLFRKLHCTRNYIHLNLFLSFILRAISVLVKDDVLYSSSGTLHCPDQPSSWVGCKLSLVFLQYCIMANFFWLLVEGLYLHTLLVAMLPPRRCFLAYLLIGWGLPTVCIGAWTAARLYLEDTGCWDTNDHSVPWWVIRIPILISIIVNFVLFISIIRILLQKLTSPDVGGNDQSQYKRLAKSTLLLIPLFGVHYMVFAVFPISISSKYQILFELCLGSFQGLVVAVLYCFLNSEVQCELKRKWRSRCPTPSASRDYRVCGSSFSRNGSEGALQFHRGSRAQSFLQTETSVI


These binders were tested against T1, human PACAP/VIP R2 (PACAP R3) receptor (assay: cell-based or functional assay).

R3 EC50, nM (cAMP SPA) | R3 Selectivity | Binder
0.2 nM |  | HSDAVFTDNYTRLRKQMAAKKYLNSIKNKW [rR3P169]
1.1 nM | 1.4 ratio | HSDAVFTDNYTRLRKQMAAKKYLNSIKNRI-NH2 [PAC27]
2.6 nM | 29 ratio | HSDAVFTDDYTRLRKEVAAKKYLESIKDKRY [R3P172]
0.4 nM | 200 ratio | HSDAVFTDNYTRLRKQVAAKKYLQSIKNKRYSWCEPGWCR [rR3P171]
200 nM |  | ESDGIFTDSYSRYRKQMAVKKYLAAVL [R3P173]
1 nM |  | HSDAVFTDNYTRLRKQMAAKKYLNSIKNKT [rR3P167]
0.5 nM |  | HSDAVFTDNYTRLRKQMAAKKYLNSIKNKQ [rR3P165]

Each binder was assayed against T2, PACAP-R3 (assay: cell-based or functional assay).

R3 EC50 | R3 Selectivity | Binder
1 nM | 100 ratio | HSDAVFTDNYTRLRKQMAAKKYLNSIKNKF [R3P156]
 | > 300 ratio | HSDAVFTDNYTRLRKQLAAKKYLNDIKKGG [R3P31]
 | 6 ratio | HSDAVFTDNYTELRKQMAVKKYLNSILN [R3P44]
0.07 nM | 90 ratio | HSDAVFTDNYTRLRKQMAAKKYLNSIKNKH [R3P158]
 | > 40 ratio | HSDAVFTDNYTRLRKQLAAKKYLNDIKKNQ [R3P35]
 | 200 ratio | HSDAVFTDNYTRLRKQLAAKKYLNDIKKG [R3P32]
 | > 50 ratio | Ac-HSDAVFTENYTKLRKQLAAKKYLNDLKKGGT-NH2 [R3P1]
0.5 nM | 400 ratio | HSDAVFTDNYTRLRKQMAAKKYLNSIKNKI [R3P159]
 | 230 ratio | HSDAVFTDNYTRLRKQMAAKKYLNDIKKGGT [R3P20]
 | 34 ratio | HSDAVFTDNYTRLRKQLAAKKYLNDIKNGGT [R3P24]
 | > 200 ratio | HSDAVFTDNYTRLRKQLAVKKYLNDIKNGGT [R3P29]
 | 20 ratio | HSDAVFTDNYTRLRKQLAVKKYLNSIKKGGT [R3P25]
 | 24 ratio | HSDAVFTDNYTRLRKQLAAKKYLNSIKKGGT [R3P22]
 | > 180 ratio | HSDAVFTDNYTRLRKQMAAKKYLNSIKKGGT [R3P26]
 | 50 ratio | HSDAVFTDNYTRLRKQLAAKKYLNSIKNGGT [R3P30]
 | 60 ratio | HSDAVFTDNYTRLRKQLAVKKYLNDIKKGGT [R3P21]
 | > 200 ratio | HSDAVFTDNYTRLRKQLAAKKYLNDIKKKRY [R3P36]
 | 10 ratio | HSDAVFTDNYTRLRKQMAVKKYLNSIKN [R3P42]
 | 500 ratio | HSDAVFTDNYTRLRKQMAAKKYLNSIKNKK [R3P160]
 | > 250 ratio | Ac-HSDAVFTENYTKLRKQ[Nle]AAKKYLNDLKKGGT-NH2 [R3P0]
0.2 nM | 200 ratio | HSDAVFTDNYTRLRKQMAAKKYLNSIKNKN [R3P163]
 | 100 ratio | HSDAVFTDNYTRLRKQMAVKKYLNSIKK [R3P41]
 | > 70 ratio | HSDAVFTDNYTRLRKQLAAKKYLNDIKKQ [R3P34]
0.2 nM |  | HSDAVFTDNYTRLRKQMAAKKYLNSIKNKL [R3P161]
 | > 200 ratio | HSDAVFTDNYTRLRKQLAAKKYLNDIKK [R3P33]
 | 10 ratio | HSDAVFTDNYTRLRKQMAVKKYLNSILK [R3P43]
0.3 nM |  | HSDAVFTDNYTRLRKQMAAKKYLNSIKNKP [R3P164]
0.3 nM | 170 ratio | HSDAVFTDNYTRLRKQMAAKKYLNSIKNKG [R3P157]
